According to US20190002511A1:
Like-named read-outs stand apart in the source and are kept apart here.

Tests used:
[1] = molecular target: human α-thrombin (recombinant) (human), P00734; experiment: assay not named; the printed µM is most likely a misprint of pM (compare Table 5 and paragraph 9)
[2] = molecular target: human α-thrombin (recombinant) (human), P00734; experiment: thrombin amidolytic assay with S2238; column headed Affinity (nM)
[3] = molecular target: human α-thrombin (recombinant) (human), P00734; experiment: comparison of Ki values
[4] = molecular target: human α-thrombin (recombinant) (human), P00734; experiment: thrombin amidolytic assay with S2238, Morrison tight-binding fit
[5] = molecular target: human α-thrombin (recombinant) (human), P00734; experiment: cell-based or functional assay
[6] = molecular target: human α-thrombin (recombinant) (human), P00734; experiment: cell-based or functional assay; remark: listed apart in the source

- Ki [1]: 1500 nM
- Ki [2]: 0.001 nM
- fold more potent than variegin (Ki) [3]: > 70 fold
- fold stronger affinity than avathrin and variegin [3]: > 200 fold
- Ki [4]: 0.0044 nM
- IC50, inhibition of thrombin amidolytic activity [5]: 0.4 nM
- IC50, inhibition of thrombin amidolytic activity [6]: 0.26 nM
Binder: SDEAVRAIPKMYSTAPPGDFEEIPDDAIEE (modifications not checked) [ultravariegin]
